[ ]: non-standard residue; d: D form.
Biological target: purified E. coli 30S ribosomal subunit (E. coli (endogenous in MRE600))
Assay: fluorescence polarisation; cf-labeled peptide (10 µL of 40 nmol/L) added to a 2-fold dilution series (22 steps, 10 µL) of pure 70S ribosome, 50S or 30S subunit; ribosome preparation buffer (20 mmol/L HEPES-KOH, 6 mmol/L MgCl2, 30 mmol/L NH4Cl, pH 7.6); 28 ± 1 °C, 90 min; apparent Kd (average over at least two or three sites)

fold weaker binding than to the 50S subunit: 23 fold
Binder: {5(6)‑carboxyfluorescein}-VDKPPYLPRPRPPR[dR]IYN[dR]-NH2 [cf-Onc112 (5(6)-carboxyfluorescein-labeled Onc112, …rIYNr-NH2)]

From paper PMC11087509, “Multimodal binding and inhibition of bacterial ribosomes by the antimicrobial peptides Api137 and Api88” (Nature Communications, 2024)
